Data published in the supplement of paper PMC11780869.

Test system: Bacillus subtilis
Experiment: cleaved RNA product abundance (RNA/gDNA barcode ratio) relative to median wild-type variant (ratio to wild type); higher = more accumulation of the downstream cleavage product
Summary of the method: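 Truncated aprE or tetM reporter mRNAs with barcoded RNase Y cleavage-site windows, mutagenized from oligos at a 9% error rate, sat in the B. subtilis chromosome. Cells grew in LB at 37°C from OD600 0.0003 to 0.3. Gel-selected cleaved RNA was reverse transcribed and its barcodes sequenced with those from genomic DNA, collapsing by UMI. Cleaved product abundance equals the RNA:gDNA barcode ratio per construct over the median construct with the unmutated site.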

[1] = experiment (reporter, strain, medium): exp 2b: truncated aprE reporter, strain BJT200, cleavage site: cggR-gapA (positions -7 to +36 mutated)
[2] = experiment (reporter, strain, medium): exp 4a: truncated aprE reporter, strain BJT201 with 2% xylose (RNase J1 expressed), cleavage site: cggR-gapA (positions -7 to +36 mutated)
[3] = experiment (reporter, strain, medium): exp 8a: truncated aprE reporter, strain BJT201 with 2% xylose (RNase J1 expressed), cleavage site: glnRA (positions -5 to +31 mutated)

In the case of “ACAGACGAAGGAGCCGCAAAGAAGTTATTAAGGGATGAATAATCCCTAAATATACATATCTCTCACTTATTTAAA”, the “cleaved RNA product abundance” value [1] is reported as 0.498 and the “cleaved RNA product abundance” value [2] is reported as 0.465.

In the case of “ACAGACGAAGGAGCCGCATAGAAGTTATTAAGGGATGCATAATCCCTCAATATAAATATCTCTCACTTATTTAAA”, the “cleaved RNA product abundance” value [2] is reported as 0.933.

With “CGACATGTCCCGCTTCTTTCATTAATCCGTTAGCAACTGTTTTGCCATATACACTTACCTTTTAAGAGGAGGAAT” the “cleaved RNA product abundance” value [3] was 0.161.

With “ACAGACGAAGGAGCCGCAAAGAAGTTATTAAGGGATGAAAAATCCCTCAATATCAATATCTCTCACTTATTTAAA” the “cleaved RNA product abundance” value [2] was 0.0918.

“ACAGACGAAGGAGCCGCAAAGAATTTATTAAGGGATGACTAATCCCTCAATATAAATATCTCTCACTTATTTAAA” was tested, and the “cleaved RNA product abundance” value [1] was 0.3.

For “CGACATGTCCCGCTTCTTTCATTATTCTGTTAGCAACTGTTTTGCTATAAACATTTACCTTTTAAGAGGAGGAAT”, the “cleaved RNA product abundance” value [3] was 0.834.

“CGACATGTCCCGCTTCTTTCATTATTCCGTTAGCAACTGTTTTGCTCTATACATTTACCTTTTAAGAGGAGGAAT” was tested, and the “cleaved RNA product abundance” value [3] was 0.354.

In the case of “ACAGACGAAGGAGCCGCAAAGAAGTTATTAAGGGATTAATAATCCCTCAATATAATTATCTCTCACTTATTTAAA”, the “cleaved RNA product abundance” value [2] is reported as 0.43.

With “ACAGACGAAGGAGCCGCAAAGAAGATATTAAGGGATGAATAATACCTCAATATAAATATCTCTCACTTATTTAAA” the “cleaved RNA product abundance” value [1] was 0.162 and the “cleaved RNA product abundance” value [2] was 0.237.

With “ACAGACGAAGGAGCCGCAAAGAAGTTATTAAGGGAAGAATAATCCCTCAATATAAAGATCTCTCACTTATTTAAA” the “cleaved RNA product abundance” value [2] was 0.495.

With “ACAGACGAAGGAGCCGCAAAGAAGTAATTAAGGGATGAATAATCCCTCAACATAAATATCTCTCACTTATTTAAA” the “cleaved RNA product abundance” value [2] was 0.21.

“ACAGACGAAGGAGCCGCAAAGAAGTTATTAAGGTAGGAATAATCCCTCAATATAAATATCTCTCACTTATTTAAA” was tested, and the “cleaved RNA product abundance” value [1] was 0.145 and the “cleaved RNA product abundance” value [2] was 0.159.

“ACAGACGAAGGAGCCGCACAGAAGTTACTAAGGGATGAATAATCCCTCAATATAAATATCTCTCACTTATTTAAA” was tested, and the “cleaved RNA product abundance” value [2] was 0.22.

With “ACAGACGAAGGAGCCGCAAAGAAGTTGTTAAGGGATGAATAATCCCTCTATATAAATATCTCTCACTTATTTAAA” the “cleaved RNA product abundance” value [2] was 0.411.

With “ACAGACGAAGGAGCCGCAAAGAAGTTATTAAGGGATGAATAATCCCTCATTATAAATAACTCTCACTTATTTAAA” the “cleaved RNA product abundance” value [2] was 0.248.

In the case of “ACAGACGAAGGAGCCGCAAAGAAGTTATTAAGGGAAGAATAATCCCTCAACATAAATATCTCTCACTTATTTAAA”, the “cleaved RNA product abundance” value [1] is reported as 0.133 and the “cleaved RNA product abundance” value [2] is reported as 0.257.

For “CGACATGTCCCGCTTCTTTCATTAAACCGTTAGCAACTGTTTTGATATATACATTTACCTTTTAAGAGGAGGAAT”, the “cleaved RNA product abundance” value [3] was 0.428.

For “ACAGACGAAGGAGCCGCAAAGAAGTTATTAAAGGATGTATAATCCCTCAATATAAATATCTCTCACTTATTTAAA”, the “cleaved RNA product abundance” value [2] was 0.177.

With “ACAGACGAAGGAGCCGCAAAGAAGTTGTTAAGGCATGAATAATCCCTCAATATAAATATCTCTCACTTATTTAAA” the “cleaved RNA product abundance” value [1] was 0.103.

For “ACAGACGAAGGAGCCGCAAAGAAGTTATTAAAGGATTAATAATCCCTCAATATAAATATCTCTCACTTATTTAAA”, the “cleaved RNA product abundance” value [1] was 0.154 and the “cleaved RNA product abundance” value [2] was 0.205.

In the case of “ACAGACGAAGGAGCCGCAAAGAAGTTATTAAGGGATGAATAATCCCTCCCTATAAATATCTCTCACTTATTTAAA”, the “cleaved RNA product abundance” value [2] is reported as 0.212.

In the case of “CGACATGTCCCGCTTCTTTCATTAATCCGTTAGCATCTATTTTGCTATATACATTTACCTTTTAAGAGGAGGAAT”, the “cleaved RNA product abundance” value [3] is reported as 1.53.

For “ACAGACGAAGGAGCCGCAAAGAAGTTATTAAGCGATGAATAATCTCTCAATATAAATATCTCTCACTTATTTAAA”, the “cleaved RNA product abundance” value [2] was 0.0997.

With “ACAGACGAAGGAGCCGCAAAAAAGTTATTAACGGATGAATAATCCCTCAATATAAATATCTCTCACTTATTTAAA” the “cleaved RNA product abundance” value [2] was 0.128.

In the case of “ACAGACGAAGGAGCCGCAAAGAAGTTATGAAGGGATGAATAACCCCTCAATATAAATATCTCTCACTTATTTAAA”, the “cleaved RNA product abundance” value [2] is reported as 0.419.

With “ACAGACGAAGGAGCCGCAAAGAAGTTATTATGGGATGAATAATCCCTCAATATAAATACCTCTCACTTATTTAAA” the “cleaved RNA product abundance” value [1] was 0.348 and the “cleaved RNA product abundance” value [2] was 0.44.
